Measurements published in patent publication US20010010923A1, “MODIFIED CARBOXYPEPTIDASE” (priority 1997, published 2001).

What was measured:
[1] = Transpeptidation of Bz-G-A-R-A-R-X-OH at pH 7.5 at 50% substrate consumption, Table 4; format: biochemical; set-up: key to fa: fraction: aminolysis product / sum of all products formed; details: for fa / t: 50% substrate consumption; for t: 375 mM H-Leu-NH2, 2 mM substrate, [E] 0.1 mg/mL
Protocol: (§1) Transamidation reactions were carried out generally as described in PCT Application WO 95/20039. In general, the method included dissolving the nucleophile (H-Leu-NH2, unless otherwise indicated) in 50 mM HEPES, 5 mM EDTA and adjusting the pH to 7.5, 5 μl of peptide substrate (8 mM Bz-G-A-R-A-R-A-OH, unless otherwise indicated, in methanol) was added to 190 μl nucleophile solution followed by 5 μl enzyme, resulting in a substrate concentration of 0.2 mM.
(§2) During the reaction, 20 μl aliquots were removed from the reaction mixture and added to 50 μl 1% trifluoroacetic acid to quench the reaction. The reactant composition was determined by HPLC using a Waters HPLC equipped with a C-18 Waters Novapac 4μ reverse phase column and various gradients of acetonitrile in 0.1% trifluoroacetic acid. The separation was monitored at 254 nm allowing the direct quantification of the products from the integrated peak areas. The composition of the reaction mixture was determined at least twvice during the reaction, the first when 20-50% (preferably 35%) of the substrate had been consumed in the reaction and the second time when 50-90% (preferably 80%) of the peptide substrate had been consumed.
The fraction of aminolysis (fa) was expressed as the ratio between the formed aminolysis product and the sum of all products formed. Unconsumed substrate was disregarded in the calculations.
Site specific mutagenesis was performed as described for Example 1 to generate the specific mutants described below. Transamidation reactions were performed as described for Examples 1.

[2] = Transpeptidation of Bz-G-A-R-A-R-X-OH at pH 6.5 at 50% substrate consumption, Table 5; format: biochemical; set-up: key to fa: fa = aminolysis product / sum of all products formed; details: for Pmax (peak product yield) / fa: 750 mM H-Leu-NH2; for fa / t: 50% substrate consumption; for t: 750 mM H-Leu-NH2, 2 mM substrate, [E] 0.1 mg/mL
Protocol: as §1, with “[…],” for “5 mM EDTA and adjusting the pH to 7.5,”
as §2
The fraction of aminolysis (fa) was expressed as the ratio between the formed aminolysis product and the sum of all products formed. Unconsumed substrate was disregarded in the calculations. […]

[3] = leaving group A, 375 mM H-Leu-NH2
[4] = leaving group I, 375 mM H-Leu-NH2
[5] = leaving group L, 375 mM H-Leu-NH2
[6] = leaving group M, 375 mM H-Leu-NH2
[7] = leaving group V, 375 mM H-Leu-NH2

B1: N51Q + L178S + M398L: carboxypeptidase Y mutant N51Q + L178S + M398L (protein, UniProt P00729 112-532, looked up, variant N51Q L178S M398L)
Carboxypeptidase Y: KIKDPKILGIDPNVTQYTGYLDVEDEDKHFFFWTFESRNDPAKDPVILWLQGGPGCSSLTGLFFELGPSSIGPDLKPIGNPYSWNSNATVIFLDQPVNVGFSYSGSSGVSNTVAAGKDVYNFLELFFDQFPEYVNKGQDFHIAGESYAGHYIPVFASEILSHKDRNFNLTSVLIGNGSTDPLTQYNYYEPMACGEGGEPSVLPSEECSAMEDSLERCLGLIESCYDSQSVWSCVPATIYCNNAQLAPYQRTGRNVYDIRKDCEGGNLCYPTLQDIDDYLNQDYVKEAVGAEVDHYESCNFDINRNFLFAGDWMKPYHTAVTDLLNQDLPILVYAGDKDFICNWLGNKAWTDVLPWKYDEEFASQKVRNWTASITDEVAGEVKSYKHFTYLRVFNGGHLVPFDVPENALSMVNEWIHGGFSL
fraction of aminolysis for leucine as a leaving group, in words [1]: improved | Pmax (peak product yield) [1, 3]: >0.67 | fa [1, 3]: 0.87 | t ([1]; leaving group A): 24 min | fa [1, 4]: 0.82 | t ([1]; leaving group I): 129 min | Pmax (peak product yield) [1, 5]: >0.73 | Pmax (peak product yield) ([1]; leaving group L, 375 mM H-Leu-NH2, listed as N51Q+L178S+M398L): 0.73 | fa [1, 5]: 0.76 | t ([1]; leaving group L): 52 min | fa [1, 6]: 0.75 | t ([1]; leaving group M): 84 min | fa [1, 7]: 0.82 | t ([1]; leaving group V): 168 min | Pmax (peak product yield) ([2]; leaving group A): 0.70 | fa ([2]; leaving group A): 0.91 | t ([2]; leaving group A): 194 min | Pmax (peak product yield) ([2]; leaving group L): 0.80 | fa ([2]; leaving group L): 0.84 | t ([2]; leaving group L): 36 min

B2: N51Q + L178S: carboxypeptidase Y mutant N51Q + L178S (S1' and S1 subsites) (protein, UniProt P00729 112-532, looked up, variant N51Q L178S)
Carboxypeptidase Y: KIKDPKILGIDPNVTQYTGYLDVEDEDKHFFFWTFESRNDPAKDPVILWLQGGPGCSSLTGLFFELGPSSIGPDLKPIGNPYSWNSNATVIFLDQPVNVGFSYSGSSGVSNTVAAGKDVYNFLELFFDQFPEYVNKGQDFHIAGESYAGHYIPVFASEILSHKDRNFNLTSVLIGNGSTDPLTQYNYYEPMACGEGGEPSVLPSEECSAMEDSLERCLGLIESCYDSQSVWSCVPATIYCNNAQLAPYQRTGRNVYDIRKDCEGGNLCYPTLQDIDDYLNQDYVKEAVGAEVDHYESCNFDINRNFLFAGDWMKPYHTAVTDLLNQDLPILVYAGDKDFICNWLGNKAWTDVLPWKYDEEFASQKVRNWTASITDEVAGEVKSYKHFTYLRVFNGGHMVPFDVPENALSMVNEWIHGGFSL
Pmax (peak product yield) [1, 3]: 0.60 | fa [1, 3]: 0.72 | t ([1]; leaving group A): 34 min | fa [1, 4]: 0.62 | t ([1]; leaving group I): 211 min | Pmax (peak product yield) [1, 5]: 0.18 | fa [1, 5]: 0.20 | t ([1]; leaving group L): 23 min | fa [1, 6]: 0.51 | t ([1]; leaving group M): 211 min | fa [1, 7]: 0.62 | t ([1]; leaving group V): 194 min | Pmax (peak product yield) ([2]; leaving group A): 0.78 | fa ([2]; leaving group A): 0.87 | t ([2]; leaving group A): 31 min | Pmax (peak product yield) ([2]; leaving group L): 0.26 | fa ([2]; leaving group L): 0.28 | t ([2]; leaving group L): 19 min
